Assay results as given in patent US20130336893A1 (Sanofi, published 2013).
Where no end group is shown, it is not given here. [ ]: non-standard residue; d: D form.

What was measured:
[1] = target: human GLP-1 receptor (human, UniProt P43220 24-463); assay: cell-based or functional assay
[2] = target: human glucagon receptor (human, UniProt P47871 26-477); assay: cell-based or functional assay
Sequence of human glucagon receptor (P47871 26-477): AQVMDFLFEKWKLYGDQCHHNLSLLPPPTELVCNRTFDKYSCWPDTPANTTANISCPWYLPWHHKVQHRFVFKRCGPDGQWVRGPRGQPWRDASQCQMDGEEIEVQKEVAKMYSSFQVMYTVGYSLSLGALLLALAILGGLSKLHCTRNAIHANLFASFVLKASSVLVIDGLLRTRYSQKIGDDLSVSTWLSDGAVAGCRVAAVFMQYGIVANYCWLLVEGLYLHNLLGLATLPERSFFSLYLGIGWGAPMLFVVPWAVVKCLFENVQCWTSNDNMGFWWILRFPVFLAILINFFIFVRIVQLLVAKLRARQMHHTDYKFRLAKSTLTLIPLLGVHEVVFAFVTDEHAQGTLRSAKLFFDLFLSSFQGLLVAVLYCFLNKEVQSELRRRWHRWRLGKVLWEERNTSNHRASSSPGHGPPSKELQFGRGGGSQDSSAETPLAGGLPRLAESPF

B1: SEQ ID NO: (43) (peptide)
peptide: H[dS]QGTFTSDLSKQFDSRRAQDFIEWLKNGGPSSGAPPPS-NH2
modifications: N-terminus assumed
SMILES: CC[C@H](C)[C@H](NC(=O)[C@H](Cc1ccccc1)NC(=O)[C@H](CC(=O)O)NC(=O)[C@H](CCC(N)=O)NC(=O)[C@H](C)NC(=O)[C@H](CCCNC(=N)N)NC(=O)[C@H](CCCNC(=N)N)NC(=O)[C@H](CO)NC(=O)[C@H](CC(=O)O)NC(=O)[C@H](Cc1ccccc1)NC(=O)[C@H](CCC(N)=O)NC(=O)[C@H](CCCCN)NC(=O)[C@H](CO)NC(=O)[C@H](CC(C)C)NC(=O)[C@H](CC(=O)O)NC(=O)[C@H](CO)NC(=O)[C@@H](NC(=O)[C@H](Cc1ccccc1)NC(=O)[C@@H](NC(=O)CNC(=O)[C@H](CCC(N)=O)NC(=O)[C@@H](CO)NC(=O)[C@@H](N)Cc1c[nH]cn1)[C@@H](C)O)[C@@H](C)O)C(=O)N[C@@H](CCC(=O)O)C(=O)N[C@@H](Cc1c[nH]c2ccccc12)C(=O)N[C@@H](CC(C)C)C(=O)N[C@@H](CCCCN)C(=O)N[C@@H](CC(N)=O)C(=O)NCC(=O)NCC(=O)N1CCC[C@H]1C(=O)N[C@@H](CO)C(=O)N[C@@H](CO)C(=O)NCC(=O)N[C@@H](C)C(=O)N1CCC[C@H]1C(=O)N1CCC[C@H]1C(=O)N1CCC[C@H]1C(=O)N[C@@H](CO)C(N)=O
[1]
  EC50 hGLP-1R (cAMP formation): 0.3 nM
[2]
  EC50 hGlucagonR (cAMP formation): 0.148 nM
